Assay results as given in article PMC3107197.

Target: GFP-tagged Fab1p (yeast) [yeast]
Test: co-immunoprecipitation (IP: Fab1p-GFP), densitometry
Conditions: Bound fraction; parent: 1

ratio to parent: 0.4
Substance: myc-tagged Fig4p (wildtype, yeast) mutant I59T [yeast] / GFP-tagged Fab1p (yeast) [yeast] chain 1 I59T
